The source of these data is patent publication US20240269271A1.

Assay [1] has as its target HVEM. Nature of the assay: competition ELISA, plates coated with BTLA, HVEM binding read out.
In assay [2] the target is HVEM. The experiment in a line: competition ELISA, plates coated with BTLA, HVEM binding read out; control protein.

In the assay with HVEM [1], “commercially available gD protein (ligand)” yielded a percent inhibition of HVEM binding to BTLA of 90%.

In the assay with HVEM [2], “sequence of the V2 loop of HIV envelope linked to a His-tag” showed a percent inhibition of HVEM binding to BTLA of 45%.
